In patent US20210317456:

How the values were obtained:
[1] = system: IgG4-Kappa (Homo sapiens), P01861-1+P01834; assay: pulldown; details: Protein L beads
[2] = system: IgG3-Kappa (Homo sapiens), P01860-1+P01834; assay: pulldown; details: Protein L beads
[3] = system: β-FGFR fusion (Fc fusion protein) (Homo sapiens); assay: pulldown; details: 37C, bead partitioning
[4] = system: Immunoglobulin G (total IgG); assay: pulldown
[5] = system: IgG4-Fc (Homo sapiens), P01861-1; assay: pulldown; details: 37C, bead partitioning
Chain of IgG4-Fc (Homo sapiens), P01861-1 (P01861 other isoform, or with tags, fused parts or gaps): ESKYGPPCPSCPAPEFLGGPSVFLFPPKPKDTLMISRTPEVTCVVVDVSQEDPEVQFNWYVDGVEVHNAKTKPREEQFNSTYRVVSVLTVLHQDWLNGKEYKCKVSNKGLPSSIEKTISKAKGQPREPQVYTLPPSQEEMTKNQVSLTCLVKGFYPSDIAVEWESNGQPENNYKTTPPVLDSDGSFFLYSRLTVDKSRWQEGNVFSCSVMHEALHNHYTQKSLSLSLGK

[6] = system: IgG3-Fc (Homo sapiens), P01860-1; assay: pulldown; details: 37C, bead partitioning
Chain of IgG3-Fc (Homo sapiens), P01860-1 (P01860 other isoform, or with tags, fused parts or gaps): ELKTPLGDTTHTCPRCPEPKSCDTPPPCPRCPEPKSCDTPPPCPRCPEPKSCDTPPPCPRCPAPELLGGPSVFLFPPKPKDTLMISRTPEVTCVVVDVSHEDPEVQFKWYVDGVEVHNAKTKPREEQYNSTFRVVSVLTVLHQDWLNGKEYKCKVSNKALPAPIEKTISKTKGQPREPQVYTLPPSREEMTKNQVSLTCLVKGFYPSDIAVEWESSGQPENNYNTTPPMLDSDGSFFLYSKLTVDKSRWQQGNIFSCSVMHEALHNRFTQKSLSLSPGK

[7] = system: IgG1-Kappa (Homo sapiens), P01857-1+P01834; assay: pulldown; details: Protein L beads
IgA (Homo sapiens) [8] = assay: pulldown; details: Zorbax beads, SB18, 37C
[9] = system: IgG1-Fc (Homo sapiens), P01857-1; assay: pulldown; details: 37C, bead partitioning
[10] = system: IgG2-Fc (Homo sapiens), P01859-1; assay: pulldown; details: 37C, bead partitioning
Chain of IgG2-Fc (Homo sapiens), P01859-1 (P01859 other isoform, or with tags, fused parts or gaps): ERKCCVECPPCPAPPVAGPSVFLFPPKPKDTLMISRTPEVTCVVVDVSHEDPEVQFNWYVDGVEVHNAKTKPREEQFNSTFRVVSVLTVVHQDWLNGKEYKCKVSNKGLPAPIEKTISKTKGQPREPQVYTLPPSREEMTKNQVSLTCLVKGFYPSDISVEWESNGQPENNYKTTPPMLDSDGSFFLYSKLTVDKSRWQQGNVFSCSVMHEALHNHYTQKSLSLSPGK

IgD (Homo sapiens) [11] = assay: pulldown; details: Zorbax beads, SB18, 37C
[12] = system: Total IgG (rabbit) (Oryctolagus cuniculus); assay: pulldown; details: Zorbax beads, SB18, 37C
[13] = system: Total IgG (monkey) (monkey); assay: pulldown; details: Zorbax beads, SB18, 37C
IgM (Homo sapiens) [14] = assay: pulldown; details: Zorbax beads, SB18, 37C
[15] = system: β-FGFR fusion (Fc fusion protein) (Homo sapiens); assay: filter; details: Zorbax, SB18, 37 C
[16] = system: IgG3-Fc (Homo sapiens), P01860-1; assay: filter; details: n (P) = NapdU; Zorbax, SB18, 37 C
IgA (Homo sapiens) [17] = assay: filter; details: Zorbax, SB18, 37 C
[18] = system: IgG1-Fc (Homo sapiens), P01857-1; assay: filter; details: n (P) = NapdU; Zorbax, SB18, 37 C
IgM (Homo sapiens) [19] = assay: filter; details: Zorbax, SB18, 37 C
[20] = system: IgG1 (mouse) (Mus musculus); assay: pulldown; details: P = 2NapdU; Protein L beads, SB17; printed as 3E07 (minus sign missing)
[21] = system: Total IgG (goat) (Capra hircus); assay: pulldown; details: P = 2NapdU; Zorbax beads, SB18, 37C
[22] = system: Total IgG (cow) (Bos taurus); assay: pulldown; details: P = 2NapdU; Zorbax beads, SB18, 37C
IgM (cow) (Bos taurus) = assay: pulldown; details: P = 2NapdU; Zorbax beads, SB18, 37C
[23] = system: Total IgG (mouse) (Mus musculus); assay: pulldown; details: P = 2NapdU; Zorbax beads, SB18, 37C
[24] = system: Total IgG (sheep) (Ovis aries); assay: pulldown; details: P = 2NapdU; Zorbax beads, SB18, 37C
[25] = system: Immunoglobulin G (total IgG) (Homo sapiens); assay: filter
IgD (Homo sapiens) [26] = assay: filter; details: Zorbax, SB18, 37 C
[27] = system: Total IgG (rabbit) (Oryctolagus cuniculus); assay: filter; details: Zorbax, SB18, 37 C
[28] = system: Total IgG (monkey) (monkey); assay: filter; details: Zorbax, SB18, 37 C
[29] = system: IgG4-Fc (Homo sapiens), P01861-1; assay: filter; details: n (P) = NapdU; Zorbax, SB18, 37 C
[30] = system: IgG2-Fc (Homo sapiens), P01859-1; assay: filter; details: n (P) = NapdU; Zorbax, SB18, 37 C
[31] = n (P) = NapdU, SB18, 5 mM MgCl2, 37 C
[32] = n (P) = 2NapdU, considered no binding
[33] = n (P) = NapdU, considered no binding
[34] = n (P) = 2NapdU, SB18, 5 mM MgCl2, 37 C

Chain of IgG3-Kappa (Homo sapiens), P01860-1+P01834 (P01860 other isoform, or with tags, fused parts or gaps, chain 1 of 2, other chains not shown): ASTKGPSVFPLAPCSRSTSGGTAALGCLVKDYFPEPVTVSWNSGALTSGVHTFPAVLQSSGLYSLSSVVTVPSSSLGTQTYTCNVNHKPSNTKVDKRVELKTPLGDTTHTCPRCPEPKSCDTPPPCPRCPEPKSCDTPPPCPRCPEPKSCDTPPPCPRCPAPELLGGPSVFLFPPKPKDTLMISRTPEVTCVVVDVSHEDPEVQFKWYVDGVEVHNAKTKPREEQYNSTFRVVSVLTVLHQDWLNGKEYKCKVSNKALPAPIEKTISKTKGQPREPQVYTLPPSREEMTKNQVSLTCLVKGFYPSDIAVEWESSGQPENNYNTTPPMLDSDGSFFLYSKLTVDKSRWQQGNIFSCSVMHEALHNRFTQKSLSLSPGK
Chain of IgG4-Kappa (Homo sapiens), P01861-1+P01834 (P01861 other isoform, or with tags, fused parts or gaps, chain 1 of 2, other chains not shown): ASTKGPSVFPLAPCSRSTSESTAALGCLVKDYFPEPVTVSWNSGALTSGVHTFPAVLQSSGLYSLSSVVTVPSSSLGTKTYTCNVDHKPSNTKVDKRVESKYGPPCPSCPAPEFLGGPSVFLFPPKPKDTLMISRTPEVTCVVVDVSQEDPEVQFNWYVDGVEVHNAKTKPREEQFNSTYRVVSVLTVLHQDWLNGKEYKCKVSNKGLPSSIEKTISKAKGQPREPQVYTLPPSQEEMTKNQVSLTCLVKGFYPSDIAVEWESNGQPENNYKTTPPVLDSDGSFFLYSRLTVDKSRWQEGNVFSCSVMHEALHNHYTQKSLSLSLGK

TGGCGAACTCCCTGAATGCTCTTGTCTT [14125-144_30]
Kd ([1]; P = NapdU, SB17, 37C): 4 nM
Kd ([2]; P = NapdU, SB17, 37C): 8 nM
Kd ([3]; P = NapdU): 4 nM
Kd ([4]; P = NapdU, SB18, 37C, 3E-08 M in Table 7): 8.18 nM
Kd ([5]; P = NapdU): 30 nM
Kd ([6]; P = NapdU): 2 nM
Kd ([7]; P = NapdU, SB17, 37C): 40 nM
Kd (IgA (Homo sapiens) [8]; P = NapdU): 100 nM
Kd ([9]; P = NapdU): 30 nM
Kd ([10]; P = NapdU): 7 nM
Kd (IgD (Homo sapiens) [11]; P = NapdU): 80 nM
Kd ([12]; P = NapdU): 100 nM
Kd ([13]; P = NapdU): 60 nM
Kd (IgM (Homo sapiens) [14]; P = NapdU): 6 nM

CCTCCATACGGTACGATTTTCAGTTGGATCCAGTACCTGGCTGGAGAGAA [5406-56_3]
Kd ([1]; n (P) = NapdU, SB17, 37 C): 20 nM
Kd ([2]; n (P) = NapdU, SB17, 37 C): 80 nM
Kd ([4]; P = NapdU at all n positions, SB18, 5 mM MgCl2, 37C, bead partitioning, 4.54 nM in Table 2): 3.13 nM
Kd ([7]; n (P) = NapdU, SB17, 37 C): 2 nM
Kd ([15]; n (P) = NapdU): 3 nM
Kd [16]: 400 nM
Kd (IgA (Homo sapiens) [17]; n (P) = NapdU): 200 nM
Kd [18]: 2 nM
Kd (IgM (Homo sapiens) [19]; n (P) = NapdU): 100 nM

GCGGTTACCTTGTAGGCGATTATGGGCA [5334-8_34]
Kd [20]: 300 nM
Kd ([1]; P = 2NapdU, SB17, 37C): 3 nM
Kd [21]: 600 nM
Kd ([2]; P = 2NapdU, SB17, 37C): 4 nM
Kd [22]: 500 nM
Kd ([3]; P = 2NapdU): 2 nM
Kd ([4]; P = 2NapdU, SB18, 37C, 8E-09 M in Table 7): 9.71 nM
Kd (IgM (cow) (Bos taurus)): 40 nM
Kd ([5]; P = 2NapdU): 2 nM
Kd ([6]; P = 2NapdU): 1 nM
Kd ([7]; P = 2NapdU, SB17, 37C): 20 nM
Kd (IgA (Homo sapiens) [8]; P = 2NapdU): 40 nM
Kd ([9]; P = 2NapdU): 5 nM
Kd ([10]; P = 2NapdU): 2 nM
Kd (IgD (Homo sapiens) [11]; P = 2NapdU): 60 nM
Kd [23]: 200 nM
Kd [24]: 500 nM
Kd ([12]; P = 2NapdU): 9 nM
Kd ([13]; P = 2NapdU): 6 nM
Kd (IgM (Homo sapiens) [14]; P = 2NapdU): 0.6 nM

GATGGCGAACTCCCTGAATGCTCTTGTCTTA [14125-144_24]
Kd [25, 31]: 9.89 nM

ATGGCGAACTCCCTGAATGCTCTTGTCTTAA [14125-144_21]
Kd [25, 31]: 5.5 nM

GCCTGCACGATGGCGAACTCCCTGAATGCTCTTGTCTTAAGTCC [14125-144_14]
Kd [25, 31]: 15.8 nM

CGGCACTCCACATCCAAGACTGCGGTTACCTTGTAGGC [5334-8_17]
Kd [25, 32]: > 1000 nM

GGCGAACTCCCTGAATGCTCTTGTCT [14125-144_35]
Kd [25, 33]: > 1000 nM

ACGGTACGATTTTCAGTTGGATCCAGTACC [5406-56_40]
Kd [25, 31]: 4.32 nM

ACTCCCTGAATGCTCTTGTCTTAAGTCCCCAACA [14125-144_11]
Kd [25, 33]: > 1000 nM

ACGGTACGATTTTCAGTTGGATCCAGTACCTG [5406-56_28]
Kd [25, 31]: 3.64 nM

TACGGTACGATTTTCAGTTGGATCCAGTACCT [5406-56_33]
Kd [25, 31]: 5.31 nM

GCCTGCACGATGGCGAACTCCCTGAATGCTCTTGTCTTAAGTCCCCAA [14125-144_12]
Kd [25, 31]: 17.2 nM

TACGGTACGATTTTCAGTTGGATCCAGTAC [5406-56_45]
Kd [25, 31]: 21.8 nM

GGTACGATTTTCAGTTGGATCCAGTACCT [5406-56_36]
Kd [25, 31]: 3.44 nM

GCACGATGGCGAACTCCCTGAATGCTCTTGTCTTAAGTCCCCAACA [14125-144_5]
Kd [25, 31]: 8.87 nM

GATGGCGAACTCCCTGAATGCTCTTGTCT [14125-144_32]
Kd [25, 33]: > 1000 nM

CGGCACTCCACATCCAAGACTGCGGTTACCTTGTAGGCGA [5334-8_16]
Kd [25, 32]: > 1000 nM

GACTGCGGTTACCTTGTAGGCGATTATGGGCAG [5334-8_21]
Kd [25, 34]: 6.77 nM

TGCGGTTACCTTGTAGGCGATTATGGGCAG [5334-8_24]
Kd [25, 34]: 5.51 nM

GGCGAACTCCCTGAATGCTCTTGTC [14125-144_39]
Kd [25, 33]: > 1000 nM

GATGGCGAACTCCCTGAATGCTCTTGTCTT [14125-144_28]
Kd [25, 31]: 17.2 nM

CGGTACGATTTTCAGTTGGATCCAGTACCTG [5406-56_29]
Kd [25, 31]: 3.49 nM

GGTACGATTTTCAGTTGGATCCAGTACC [5406-56_42]
Kd [25, 31]: 4.97 nM

ACTCCACATCCAAGACTGCGGTTACCTTGTAGGCGATTATGGGCAG [5334-8_5]
Kd [25, 34]: 5.92 nM

CGGTACGATTTTCAGTTGGATCCAGTACCTGG [5406-56_23]
Kd ([25]; n (P) = NapdU, SB18, 5 mM MgCl2, 37 C, sequence identical to _21 to _25): 5.48 nM

TCCAAGACTGCGGTTACCTTGTAGGCGATTATGGGCAG [5334-8_9]
Kd [25, 34]: 8.38 nM

CACATCCAAGACTGCGGTTACCTTGTAGGCGATTATGGGCAG [5334-8_7]
Kd [25, 34]: 5.89 nM

CGGCACTCCACATCCAAGACTGCGGTTACCTTGTAGGCGATTATGGGCAG [5334-8_3]
Kd ([1]; n (P) = 2NapdU, SB17, 37 C): 10 nM
Kd ([2]; n (P) = 2NapdU, SB17, 37 C): 7 nM
Kd ([4]; P = 2NapdU at all n positions, SB18, 37C, 12.2 nM in Table 4): 7.52 nM
Kd ([7]; n (P) = 2NapdU, SB17, 37 C): 40 nM
Kd ([15]; n (P) = 2NapdU): 9 nM
Kd (IgA (Homo sapiens) [17]; n (P) = 2NapdU): 200 nM
Kd (IgD (Homo sapiens) [26]; n (P) = 2NapdU): 600 nM
Kd ([27]; n (P) = 2NapdU): 20 nM
Kd ([28]; n (P) = 2NapdU): 20 nM
Kd (IgM (Homo sapiens) [19]; n (P) = 2NapdU): 100 nM

GCCTGCACGATGGCGAACTCCCTGAATGCTCTTGTCTTAAGTCCCCAACA [14125-144_3]
Kd ([1]; n (P) = NapdU, SB17, 37 C): 5 nM
Kd ([2]; n (P) = NapdU, SB17, 37 C): 4 nM
Kd ([4]; P = NapdU at all n positions, SB18, 37C, 18.8 nM in Table 6): 16.3 nM
Kd ([7]; n (P) = NapdU, SB17, 37 C): 20 nM
Kd ([15]; n (P) = NapdU): 3 nM
Kd [29]: 20 nM
Kd [16]: 5 nM
Kd (IgA (Homo sapiens) [17]; n (P) = NapdU): 30 nM
Kd [18]: 40 nM
Kd [30]: 8 nM
Kd (IgD (Homo sapiens) [26]; n (P) = NapdU): 600 nM
Kd ([27]; n (P) = NapdU): 40 nM
Kd ([28]; n (P) = NapdU): 80 nM
Kd (IgM (Homo sapiens) [19]; n (P) = NapdU): 40 nM

TACGGTACGATTTTCAGTTGGATCCAGTACC [5406-56_39]
Kd [25, 31]: 6.74 nM

CGGCACTCCACATCCAAGACTGCGGTTACCTTGTAG [5334-8_18]
Kd [25, 32]: > 1000 nM

GATGGCGAACTCCCTGAATGCTCTTGTC [14125-144_36]
Kd [25, 33]: > 1000 nM

ACTGCGGTTACCTTGTAGGCGATTATGGGCAG [5334-8_22]
Kd [25, 34]: 5.77 nM

CAAGACTGCGGTTACCTTGTAGGCGATTATGGGCAG [5334-8_10]
Kd [25, 34]: 5.38 nM

ACGGTACGATTTTCAGTTGGATCCAGTACCT [5406-56_34]
Kd [25, 31]: 3.36 nM

GGTACGATTTTCAGTTGGATCCAGTAC [5406-56_48]
Kd ([1]; P = NapdU, SB17, 37C): 50 nM
Kd ([2]; P = NapdU, SB17, 37C): 100 nM
Kd ([3]; P = NapdU): 4 nM
Kd ([4]; P = NapdU, SB18, 37C, 6E-09 M in Table 7): 5.81 nM
Kd ([5]; P = NapdU): 30 nM
Kd ([6]; P = NapdU): 70 nM
Kd ([7]; P = NapdU, SB17, 37C): 2 nM
Kd (IgA (Homo sapiens) [8]; P = NapdU): 200 nM
Kd ([9]; P = NapdU): 3 nM
Kd (IgD (Homo sapiens) [11]; P = NapdU): 500 nM
Kd ([13]; P = NapdU): 100 nM
Kd (IgM (Homo sapiens) [14]; P = NapdU): 70 nM

CGGTACGATTTTCAGTTGGATCCAGTACCT [5406-56_35]
Kd [25, 31]: 3.42 nM
